Results on two molecules are retold here after patent US20240002542A1 (SYNTHEKINE, published 2024).

In assay [1] the target is T1, hIL27Ra-his (Origene, Catalog #TP307012) (human, UniProt Q6UWB1 33-516, limits assumed).
T1 construct: Bought his-tagged cytokine receptor used as SPR analyte; also called human IL27 receptor subunit alpha; not shown: his tag
T1 sequence: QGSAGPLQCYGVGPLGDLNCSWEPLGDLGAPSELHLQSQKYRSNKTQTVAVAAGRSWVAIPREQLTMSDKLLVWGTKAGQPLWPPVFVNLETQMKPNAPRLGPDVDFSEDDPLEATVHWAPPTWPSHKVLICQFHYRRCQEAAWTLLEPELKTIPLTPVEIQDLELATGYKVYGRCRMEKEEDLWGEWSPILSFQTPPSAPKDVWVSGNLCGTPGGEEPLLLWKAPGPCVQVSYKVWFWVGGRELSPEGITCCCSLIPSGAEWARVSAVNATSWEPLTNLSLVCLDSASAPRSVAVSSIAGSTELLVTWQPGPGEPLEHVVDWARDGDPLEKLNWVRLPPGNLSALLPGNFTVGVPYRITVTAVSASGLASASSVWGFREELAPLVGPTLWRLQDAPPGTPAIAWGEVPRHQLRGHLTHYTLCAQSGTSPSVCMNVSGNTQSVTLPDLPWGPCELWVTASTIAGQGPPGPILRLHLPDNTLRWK
The experiment in a line: SPR Biacore T200; mono-Fc VHH on Protein A chip, hIL27Ra-his analyte. The procedure:
(§1) All experiments were conducted in 10 mM Hepes, 150 mMv NaCl, 0.05% (v/v) Polysorbate 20 (PS20) and 3 mMv EDTA (HBS-EP+ buffer) on a Biacore® T200 instrument equipped with a Protein A chip (Cytiva). Mono-Fc VHH ligands were flowed at 5 μl/min for variable time ranging from 18 to 300 seconds, reaching the capture loads listed in the tables below.
(§2) Following ligand capture, injections of a 2-fold dilution series of his-tagged cytokine receptors typically comprising at least five concentrations between 1 μM and 1 nM were performed in either high performance or single cycle kinetics mode. Surface regeneration was achieved by flowing 10 mMv glycine-HCl, pH 1.5 (60 seconds, 50 μL/min). Buffer-subtracted sensograms were processed with Biacore® T200 Evaluation Software and globally fit with a 1:1 Langmuir binding model (bulk shift set to zero) to extract kinetics and affinity constants (ka, kd, KD). RMAX<100 RU indicates surface density compatible with kinetics analysis. Calculated Rmax were generated using the equation Rmax=Load (RU)×valency of ligand×(Molecular weight of analyte/Molecular weight of ligand. Surface activity was defined as the ratio experimental/calculated Rmax. See tables below for sample information and experimental results.
For orientation: In SPR one partner is held on a chip, and binding of the other changes the refractive index at the surface.

Assay [2] addresses T1, hIL27Ra-his (Origene, Catalog #TP307012). Description: SPR Biacore T200; ratio experimental/calculated Rmax. The procedure: as §1, §2

By Kd is commonly meant the constant that tells how readily two partners part at equilibrium. One may read the koff as the rate constant with which the complex falls apart. Low readings indicate slow dissociation, high ones fast dissociation. Broadly, the kon is a measure of how fast the partners come together. Low readings indicate slower complex formation, high ones faster complex formation.

B1: 26-DR603 (SEQ ID NO. 251), anti-hIL27Ra Mono-Fc VHH (Fc fusion)
chain: QVQLQESGGGLVQPGGSLRLSCAASGFTFSLSSMSWVRQAPGKGLEWVSAISSGGASTYYTDSVKGRFTISRDNAKNMLYLQLNSLKTEDTAMYYCAKGGSGYGDASRMTSPGSQGTQVTVSS
notes: Mono-Fc VHH ligand captured on a Protein A chip; not shown: mono-Fc part
Regarding B1, in assay [1], the Kd is 6.1 nM, the off-rate constant (koff) amounted to 0.00077 s⁻¹ and the kon is 130000 M⁻¹ s⁻¹. In addition, in assay [2], the “Surface Activity” value was 18%.

B2: 25-DR602 (SEQ ID NO. 250), anti-hIL27Ra Mono-Fc VHH (Fc fusion)
chain: QVQLQESGGGSVQAGGSLRLSCRASGSTYSNYCLGWFRQITGKEREGVAVINWVGGMLYFADSVKGRFTVSQDQAKNTVYLQMNSLKPEDTAMYYCAAESVSSFSCGGWLTRPDRVPYWGQGTQVTVSS
notes: as for B1
B2: in assay [1], the dissociation constant Kd was found to be 5.2 nM, the off-rate constant (koff) stood at 0.00076 s⁻¹ and the kon worked out at 150000 M⁻¹ s⁻¹. Besides, the “Surface Activity” value in assay [2] is 20%.
